Our source for the ratio to parent values is PMC5458344.

In assay [1] the target is GST-emerin (amino acids 1–176, lacking the TM domain) (UniProt P50402). The assay is described as follows: reverse GST pull-down with western blot densitometry. Conditions: lysates of U2OS cells transfected with GFP-nesprin-1α2 WT or mutant; three independent experiments, mean ± SEM; parent: est. 1.0; read off a plot.
For assay [2], the target named is GST-lamin A (amino acids 356–665, containing nesprin-1/2 binding domain) (UniProt P02545). Described as above. The conditions noted are these: lysates of U2OS cells transfected with GFP-nesprin-1α2 WT or mutant; three independent experiments, mean ± SEM; parent: est. 1.0; read off a plot.
Sequence of UniProt P02545 (P02545 356-664): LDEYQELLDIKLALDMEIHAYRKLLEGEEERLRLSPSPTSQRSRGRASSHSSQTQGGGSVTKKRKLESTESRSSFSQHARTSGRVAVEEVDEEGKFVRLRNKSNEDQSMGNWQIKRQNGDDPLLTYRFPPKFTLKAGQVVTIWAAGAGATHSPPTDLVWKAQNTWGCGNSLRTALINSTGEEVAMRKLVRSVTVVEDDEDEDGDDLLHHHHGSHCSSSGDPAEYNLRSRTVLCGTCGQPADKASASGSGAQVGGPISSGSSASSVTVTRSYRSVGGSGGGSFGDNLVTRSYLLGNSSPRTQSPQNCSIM
Another assay concerns the target Myc-SUN2 (full length) (UniProt Q9UH99). The assay is described as follows: GST pull-down with western blot densitometry. Conditions: lysate of U2OS cells transfected with Myc-SUN2 (full length); three independent experiments, mean ± SEM; parent: est. 1.0; read off a plot. In general terms: In western blotting, separated proteins are transferred to a membrane and probed.
Sequence of UniProt Q9UH99 (Q9UH99 whole entry): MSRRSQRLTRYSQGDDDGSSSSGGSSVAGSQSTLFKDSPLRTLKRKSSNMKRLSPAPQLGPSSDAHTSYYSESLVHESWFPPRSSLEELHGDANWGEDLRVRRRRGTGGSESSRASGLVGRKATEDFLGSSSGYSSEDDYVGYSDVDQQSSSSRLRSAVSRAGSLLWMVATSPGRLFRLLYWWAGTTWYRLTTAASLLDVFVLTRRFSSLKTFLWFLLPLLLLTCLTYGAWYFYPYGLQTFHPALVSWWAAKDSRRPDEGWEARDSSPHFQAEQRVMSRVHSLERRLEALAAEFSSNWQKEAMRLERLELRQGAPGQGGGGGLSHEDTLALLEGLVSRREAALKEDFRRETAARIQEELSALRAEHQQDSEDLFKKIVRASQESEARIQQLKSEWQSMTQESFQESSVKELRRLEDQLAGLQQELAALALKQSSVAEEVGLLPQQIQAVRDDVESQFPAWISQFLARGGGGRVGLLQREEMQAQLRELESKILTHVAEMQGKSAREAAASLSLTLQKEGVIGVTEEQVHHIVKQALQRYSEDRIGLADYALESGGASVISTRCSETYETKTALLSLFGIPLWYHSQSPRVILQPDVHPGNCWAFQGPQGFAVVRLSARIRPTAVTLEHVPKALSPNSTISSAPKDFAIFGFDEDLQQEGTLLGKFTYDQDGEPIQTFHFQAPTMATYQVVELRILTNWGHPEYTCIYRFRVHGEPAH

Assay [3] has as its target lamin A/C (endogenous, U2OS lysate; lamin A and lamin C bands quantified together). The assay is described as follows: GST pull-down with western blot densitometry. Conditions: U2OS cell lysate; three independent experiments, mean ± SEM; parent: est. 1.0; read off a plot.
A further assay deals with emerin (endogenous) (UniProt P50402). The assay is described as follows: GST pull-down with western blot densitometry. Conditions: U2OS cell lysate; three independent experiments, mean ± SEM; parent: est. 1.0; read off a plot.

Regarding GFP-tagged nesprin-1α2 WT N8406K, the ratio to parent in assay [1] worked out at 1.1; in assay [2], 0.31.

For the substance GFP-tagged nesprin-1α2 WT R8272Q, the values for the ratio to parent in assay [1] and in assay [2] were 1.1 and 0.33, respectively.

Turning to GFP-tagged nesprin-1α2 WT S8381C, the values for the ratio to parent in assay [1] and in assay [2] were 0.93 and 0.17, respectively.

Turning to “GST-tagged WT nesprin-1α2 SR1-6 (lacking KASH domain) N8406K”, the ratio to parent in the assay with Myc-SUN2 (full length) worked out at 0.15; in assay [3], 0.17; with emerin (endogenous), 1.2.

For “GST-tagged WT nesprin-1α2 SR1-6 (lacking KASH domain) R8272Q”, the ratio to parent in the assay with Myc-SUN2 (full length) amounted to 0.25; in assay [3], 0.18; in the assay with emerin (endogenous), 1.

Take “GST-tagged WT nesprin-1α2 SR1-6 (lacking KASH domain) S8381C”: the ratio to parent was determined as 0.19 in the assay with Myc-SUN2 (full length), 0.12 in assay [3] and 0.87 with emerin (endogenous).
